Four molecules from paper PMC4014545, “Structure and Inhibition of Mouse Leukotriene C4 Synthase” (PLoS ONE, 2014) can be followed below.

The target in data set [1] is T1, mouse leukotriene C4 synthase (mLTC4S) (Mus musculus, UniProt Q60860).
T1 construct: gene Ltc4s; N-terminal hexa-histidine tag
T1 sequence (Q60860 1-150): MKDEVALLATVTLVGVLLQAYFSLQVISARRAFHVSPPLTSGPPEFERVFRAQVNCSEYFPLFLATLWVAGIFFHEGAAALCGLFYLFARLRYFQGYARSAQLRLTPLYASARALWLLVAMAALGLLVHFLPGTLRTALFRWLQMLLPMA
Put plainly: X-ray crystal structure (co-crystal), […] Å; Km […] also measured. The format is binding.

Data set [2] has as its target T1, mouse leukotriene C4 synthase (mLTC4S). The experiment in a line: LTC4 formation by purified enzyme, RP-HPLC; competitive inhibition model fit. The format is biochemical.
The target in data set [3] is T2, human leukotriene C4 synthase (hLTC4S) (Homo sapiens, UniProt Q16873).
T2 construct: gene LTC4S
T2 sequence (Q16873 1-150): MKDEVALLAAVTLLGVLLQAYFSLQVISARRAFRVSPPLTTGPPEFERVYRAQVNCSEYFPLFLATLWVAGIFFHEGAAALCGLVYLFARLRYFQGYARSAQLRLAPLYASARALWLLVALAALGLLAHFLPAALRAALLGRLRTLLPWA
Described as above. Type of data set: biochemical.

Substrate in data set [4]: CCCCC/C=C\C\C=C/C=C/C=C/[C@@H]1O[C@H]1CCCC(=O)O
Put plainly: steady-state kinetics (Km) of purified enzyme, RP-HPLC. Type of data set: biochemical, Homo sapiens. Conditions: GSH hydrophobic LTA4 binding site; pH 7.8.

Substrate in data set [5]: CCCCC/C=C\C\C=C/C=C/C=C/[C@@H]1O[C@H]1CCCC(=O)O
Described as above. Type of data set: biochemical, Mus musculus. Conditions: GSH hydrophobic LTA4 binding site; pH 7.8.

As to `N[C@@H](CCC(=O)N[C@@H](CS)C(=O)NCC(=O)O)C(=O)O` [GSH], in data set [1], the “X-ray crystal structure (co-crystal), 2.7 Å; Km 1.2±0.24 mM also measured” value is on record as “In the structure of the mLTC4S in complex with GSH, the tripeptide has a “U” shaped conformation”.

A word on the Ki: it is a measure of affinity in units of concentration, obtained from inhibition or displacement. As for `CN(c1ccc(Cl)cc1)c1ccc(C(=O)c2ccc(C(=O)c3ccccc3)c(C(=O)O)c2)nc1` [TK04, 2-Benzoyl-5-{5-[(4-chlorophenyl) (methyl)amino]pyridine-2-carbonyl}benzoic acid], the Ki in data set [2] was determined as 37 ± 6.4 nM; in data set [3], 41 ± 6.6 nM.

B1: human leukotriene C4 synthase (hLTC4S) (Homo sapiens) (protein)
chain: MKDEVALLAAVTLLGVLLQAYFSLQVISARRAFRVSPPLTTGPPEFERVYRAQVNCSEYFPLFLATLWVAGIFFHEGAAALCGLVYLFARLRYFQGYARSAQLRLAPLYASARALWLLVALAALGLLAHFLPAALRAALLGRLRTLLPWA
Broadly, the Km is the substrate concentration at which the rate is half of its maximum. By kcat is commonly meant the maximal rate divided by the concentration of active sites. Usually kcat/Km stands for the turnover number divided by the Michaelis constant. As to B1, in data set [4], the Km worked out at 23 ± 3 µM, the kcat was 15.5 ± 0.8 s⁻¹ and the kcat/Km is 600000 ± 57000 M⁻¹ s⁻¹.

B2: mouse leukotriene C4 synthase (mLTC4S) (Mus musculus) (protein)
chain: MKDEVALLATVTLVGVLLQAYFSLQVISARRAFHVSPPLTSGPPEFERVFRAQVNCSEYFPLFLATLWVAGIFFHEGAAALCGLFYLFARLRYFQGYARSAQLRLTPLYASARALWLLVAMAALGLLVHFLPGTLRTALFRWLQMLLPMA
notes: N-terminal hexa-histidine tag
Turning to B2, in data set [5], the Km was 36 ± 8 µM, the kcat came out at 81 ± 7 s⁻¹ and the kcat/Km came out at 2.3e+06 ± 260000 M⁻¹ s⁻¹.
